# Measured values taken from paper PMC7790537 (PLoS ONE, 2021).
# B1: F11 IgA1 polymer (antibody, V domains shown)
# VH: QVQLVQSGAEVKRPGSSVRVSCRTSGGSFTSFAISWVRQAPGQGLEWMGRITRILGVPNYAQKFQGRVTITADMPTTTAYLDLTNLRSEDTAVYYCARDSGTSHGDFDYWGQGTLVTVSS
# VL: EIVLTQSPVTLSLSPGERATLSCRASQNVINSLVWYQQKPGQAPRLLIYGASNRATGIPARFRGSGSGTDFTLTIDSLEPEDIAVYYCQQRGTWLWSFGQGTKVEIK
# B2: F11 IgA2m2 polymer (antibody, V domains shown)
# VH: B1 VH
# VL: B1 VL
# B3: F11 IgA1 monomer (antibody, V domains shown)
# VH: B1 VH
# VL: B1 VL
# B4: F11 IgA2m2 monomer (antibody, V domains shown)
# VH: B1 VH
# VL: B1 VL
# Target: recombinant trimeric HA of A/Puerto Rico/8/1934 (H1N1) (influenza A virus A/Puerto Rico/8/1934 …, UniProt P03452)
# Sequence (P03452 18-528): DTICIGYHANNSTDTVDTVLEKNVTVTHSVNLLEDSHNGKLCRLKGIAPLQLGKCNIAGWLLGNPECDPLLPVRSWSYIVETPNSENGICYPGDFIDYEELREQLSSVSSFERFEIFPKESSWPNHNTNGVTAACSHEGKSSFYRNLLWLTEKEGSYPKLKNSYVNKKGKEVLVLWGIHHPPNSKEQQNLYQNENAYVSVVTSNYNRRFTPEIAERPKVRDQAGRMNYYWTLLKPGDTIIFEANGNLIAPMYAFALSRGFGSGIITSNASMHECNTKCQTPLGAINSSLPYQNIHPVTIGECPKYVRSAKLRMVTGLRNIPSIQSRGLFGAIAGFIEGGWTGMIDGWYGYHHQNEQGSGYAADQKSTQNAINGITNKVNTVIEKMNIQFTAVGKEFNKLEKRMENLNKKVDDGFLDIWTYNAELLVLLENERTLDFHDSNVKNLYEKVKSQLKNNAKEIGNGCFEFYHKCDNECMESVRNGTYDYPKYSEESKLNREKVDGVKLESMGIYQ
# Assay: cell-based or functional assay
Binder,"HI activity, minimum HI concentration, PR8 virus [µg/mL]","NI activity, EC50 (NI-ELLA), PR8 virus [µg/mL]","NT activity, minimum virus-neutralizing concentration, PR8 virus [µg/mL]"
B1,500,0.222,25
B2,500,0.418,50
B3,354,0.301,50
B4,500,0.683,89.1
